According to article PMC9049607:

What was measured:
Assay in all cases: purified protein
purified protein [1] = substrate: CC(C)=CCC/C(C)=C/C=O; details: 0.2 mM NADH, 100 mM PBS pH 8.0, 30°C
purified protein [2] = substrate: CC(C)=CCC/C(C)=C\C=O; details: 0.2 mM NADH, 100 mM PBS pH 8.0, 30°C
purified protein [3] = substrate: NC(=O)C1=CN([C@@H]2O[C@H](COP(=O)(O)OP(=O)(O)OC[C@H]3O[C@@H](n4cnc5c(N)ncnc54)[C@H](O)[C@@H]3O)[C@@H](O)[C@H]2O)C=CC1; details: 5 mM (E/Z)-citral, 100 mM PBS pH 8.0, 30°C, varied: cofactor

B1: OYE2p (Saccharomyces cerevisiae S288C) (protein)
chain: PFVKDFKPQALGDTNLFKPIKIGNNELLHRAVIPPLTRMRAQHPGNIPNRDWAVEYYAQRAQRPGTLIITEGTFPSPQSGGYDNAPGIWSEEQIKEWTKIFKAIHENKSFAWVQLWVLGWAAFPDTLARDGLRYDSASDNVYMNAEQEEKAKKANNPQHSITKDEIKQYVKEYVQAAKNSIAAGADGVEIHSANGYLLNQFLDPHSNNRTDEYGGSIENRARFTLEVVDAVVDAIGPEKVGLRLSPYGVFNSMSGGAETGIVAQYAYVLGELERRAKAGKRLAFVHLVEPRVTNPFLTEGEGEYNGGSNKFAYSIWKGPIIRAGNFALHPEVVREEVKDPRTLIGYGRFFISNPDLVDRLEKGLPLNKYDRDTFYKMSAEGYIDYPTYEEALKLGWDKN
For B1, the Km (purified protein [1]) was 120 ± 25 µM, the kcat (purified protein [1]) was 0.213 ± 0.008 s⁻¹ and the kcat/Km (purified protein [1]) was 1780 ± 305 M⁻¹ s⁻¹. It also gave a Km (purified protein [2]) of 310 ± 47 µM, a kcat (purified protein [2]) of 0.13 ± 0.008 s⁻¹ and a kcat/Km (purified protein [2]) of 421 ± 39 M⁻¹ s⁻¹. For the same protein, the Km (purified protein [3]) was 14 ± 4 µM.
